System: Las17 PPR-N fragment (residues 300-422)
Assay: Biolayer Interferometry (BLI), Sla1 SH3 domains to Las17 PPR-N
Type: binding, Saccharomyces cerevisiae
Conditions: for fold increase in affinity over single SH3 domain: BLI, tandem vs single SH3 domain
Source text: To investigate binding characteristics of the SH3 domains further, Sla1 SH3 protein domains were purified. Three Sla1 SH3 single domains, tandem domains Sla1 SH3#1&2, Sla1 SH3#1&2 W108A (in which the W108A mutation prevents proline motif binding by SH3#2 but not SH3#1) and a fragment with all three SH3 domains were expressed recombinantly and purified. […] This outcome is in line with original research of Rodal and colleagues and with more recent studies of avidity developed by Williamson, which highlighted the importance of tandem binding SH3 domains[13],[27].
Biolayer Interferometry (BLI) assays were performed using an OctetⓇ R2 (Sartorius). Protein samples were placed into the wells of a polystyrene plate (ProxiPlateTM, Perkin Elmer) and binding measured either with Octet NTA Biosensors or Octet GST Biosensors. Screening assays were performed to determine the optimum loading concentration and time for each binding pair to ensure that the probe was not saturated. All experiments were repeated three times, each time with newly prepared protein. Analysis and visualisation were performed using GraphPad Prism 10.0.2.

B1: Sla1 SH3#1-2: SH3#1-2 (aa 5-131), tandem domains; sequence in b253 (protein)
chain: LGIYRAVYAYEPQTPEELAIQEDDLLYLLQKSDIDDWWTVKKRVIGSDSEEPVGLVPSTYIEEAPVLKKVRAIYDYEQVQNADEELTFHENDVFDVFDDKDADWLLVKSTVSNEFGFIPGNYVEPEN
modifications: 15N-labelled (NMR only); left off: GST, end not stated, cleaved
fold increase in affinity over single SH3 domain: ~100 fold | fold increase in affinity over single SH3 domain (listed as tandem Sla1 SH3 domains): > 100 fold | Kd (Biolayer Interferometry, Octet R2, Las17 (aa 300-422), three repeats with newly prepared protein, read-out: binding affinity (Kd)): 87 nM
